Test results taken from publication PMC4636054.

Molecular target: LlaBIII (UniProt A0A0M3KL05 1-1578)
Assay: X-ray crystallography

B1: LlaBIII 28 bp DNA (dsDNA)
DNA 1: GCTCTAGCTAATAGACTGAGCCGAGGTG
DNA 2: CACCTCGGCTCAGTCTATTAGCTAGAGC
binding result: binds
